Assay results: patent publication US10925971B2, “Methods of treating PRLR positive breast cancer” (Regeneron Pharmaceuticals, Inc., priority 2016, dated 2021)

Key:
T47D cells [1] = test: In vitro cell viability (cell kill) assay, CCK8; type: cell-based, human; conditions: for % Kill: T47D
Procedure: (§1) Next, the ability of anti-PRLR-DM1 antibody-drug conjugates (i.e., anti-PRLR antibodies conjugated to DM1 via a non-cleavable linker [SMCC]) to reduce cell viability was determined using in vitro cell based assays. Cells were seeded in PDL-coated 96 well plates at 1500 to 10000 cells per well in complete growth media and allowed to grow overnight. For cell viability curves, ADCs or free DM1 (as the methyl disulfide derivative DM1-SMe) were added to the cells at final concentrations ranging from 500 nM to 5 pM and incubated for 3 days. The 293, PC3 and T47D cells were incubated with CCK8 (Dojindo, Rockville, Md.) for the final 1-3 hours and the absorbance at 450 nm (OD450) was determined on a Flexstation3 (Molecular Devices, Sunnyvale, Calif.). MCF7 cells were treated with Hoechst 33342 nuclear stain while being fixed with 4% formaldehyde. Images were acquired on the ImageXpress micro XL (Molecular Devices, Sunnyvale, Calif.) and nuclear counts were determined via Columbus image analysis software (Perkin Elmer, Shelton, Conn.). Background OD450 values (PC3, 293, and T47D) or nuclear counts (MCF7) from digitonin (40 nM) treated cells was subtracted from all wells and viability was expressed as a percentage of the untreated controls. IC50 values were determined from a four-parameter logistic equation over a 10-point response curve (GraphPad Prism).

PRLR expressing cells = test: In vitro cell viability (cell kill) assay, several cell backgrounds; type: cell-based, human; conditions: PC3/hPRLR and MCF7/hPRLR cell lines
Text: (§2) PRLR-overexpressing cells, including HEK293, PC3, MCF7 and NCI-N87, were generated to assess the ability of anti-PRLR conjugated antibodies to reduce cell viability. For comparative purposes, PC3 and T47D cells with overexpressed ErbB2 were also generated, as well as an MCF7 cell line over-expressing both hPRLR and hErbB2. Briefly, Lipofectamine® 2000-mediated transfection methodology was utilized to generate HEK293 cells expressing human PRLR (HEK293/hPRLR) or human ErbB2 (HEK293/hErbB2). Lipofectamine LTX with Plus Reagent was used to generate PC3 cells expressing human PRLR (PC3/hPRLR) or human ErbB2 (PC3/hErbB2). Lentiviral-mediated transduction was utilized to generate MCF7 cells expressing human PRLR (MCF7/hPRLR), NCI-N87 cells expressing human PRLR (NCI-N87/hPRLR), T47D cells over-expressing human ErbB2 (T47D/hErbB2), and MCF7 cells expressing both human PRLR and human ErbB2 (MCF7/hPRLR/hErbB2). All lines were selected for at least two weeks in complete growth media plus appropriate selection reagents. Stably expressing populations were enriched for PRLR expression via FACS using the anti PRLR antibody Control I.
as §1

NCI-N87/hPRLR cells = test: In vitro cell viability (cell kill) assay; type: cell-based, human; conditions: NCI-N87/PRLR; Table 17
Text: PRLR-overexpressing cells, including HEK293, PC3, MCF7 and NCI-N87, were generated to assess the ability of anti-PRLR conjugated antibodies to reduce cell viability. For comparative purposes, PC3 and T47D cells with overexpressed ErbB2 were also generated, as well as an MCF7 cell line over-expressing both hPRLR and hErbB2. Briefly, Lipofectamine® 2000-mediated transfection methodology was utilized to generate HEK293 cells expressing human PRLR (HEK293/hPRLR) or human ErbB2 (HEK293/hErbB2). Lipofectamine LTX with Plus Reagent was used to generate PC3 cells expressing human PRLR (PC3/hPRLR) or human ErbB2 (PC3/hErbB2). […]
Next, the ability of anti-PRLR-DM1 antibody-drug conjugates (i.e., anti-PRLR antibodies conjugated to DM1 via a non-cleavable linker [SMCC]) to reduce cell viability was determined using in vitro cell based assays. […] The 293, PC3 and T47D cells were incubated with CCK8 (Dojindo, Rockville, Md.) for the final 1-3 hours and the absorbance at 450 nm (OD450) was determined on a Flexstation3 (Molecular Devices, Sunnyvale, Calif.). […] Images were acquired on the ImageXpress micro XL (Molecular Devices, Sunnyvale, Calif.) and nuclear counts were determined via Columbus image analysis software (Perkin Elmer, Shelton, Conn.). […] IC50 values were determined from a four-parameter logistic equation over a 10-point response curve (GraphPad Prism).

MCF7/hPRLR/hErbB2 cells = test: In vitro cell viability (cell kill) assay; type: cell-based, human; conditions: MCF/PRLR + ErbB2; Table 17
Text: as §2, §1
(§3) The potency of anti-PRLR conjugated antibodies compared with a similarly conjugated antibody to the co-expressed ErbB2 cell surface target was also assessed.

HEK293/hErbB2 cells = test: In vitro cell viability (cell kill) assay; type: cell-based, human; conditions: 293/ErbB2; Table 14
Text: as §2, §1, §3

PC3/hErbB2 cells = test: In vitro cell viability (cell kill) assay; type: cell-based, human; conditions: PC3/ErbB2; Table 15
Text: as §2, §1, §3

MCF7/PRLR tumors = test: MCF7/PRLR breast cancer xenograft, tumor size and tumor growth inhibition; type: in vivo, NCr nude mice; conditions: for Average Tumor Growth Inhibition (%) / Final Tumor size mm^3 (mean ± SEM): MCF7/PRLR tumors TRIAL #1, NCr Nude mice, Day 52
Summary of the method: (§4)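 MCF7/PRLR cells in mammary fat pad of female NCr nude mice, PC3/PRLR in flank of male SCID, T47D #11 in flank of female CB17 SCID, all with estrogen pellets.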

PC3 cells = test: In vitro cell viability (cell kill) assay, CCK8; type: cell-based, human; conditions: Table 11, 3 days
Summary of the method: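 Cells stably overexpressing human PRLR (transfected or lentiviral, FACS-enriched) were treated for 3 days with anti-PRLR-SMCC-DM1 ADCs or free DM1-SMe at 500 nM to 5 pM. HEK293 and PC3 viability was read by CCK8 OD450; MCF7 by Hoechst nuclear counts. Digitonin background subtracted; % of untreated; IC50 from 10-point four-parameter fit.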

HEK293 (293) cells = test: In vitro cell viability (cell kill) assay, CCK8; type: cell-based, human
Summary of the method: (§5)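 Three-day exposure to DM1-conjugated anti-PRLR antibodies or DM1-SMe, 500 nM down to 5 pM, in cells engineered to express human PRLR. Surviving cells are quantified by CCK8 absorbance or by imaged Hoechst nuclear counts, relative to untreated wells.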

[2] = system: HEK293/hPRLR (293/hPRLR) cells; test: In vitro cell viability (cell kill) assay, CCK8; type: cell-based, human
Summary of the method: as §5

SK-BR-3 cells = test: In vitro cell viability (cell kill) assay; type: cell-based, human; conditions: Table 16
MCF7 (MCF7/ATCC) cells = test: In vitro cell viability (cell kill) assay, nuclear counts; type: cell-based, human; conditions: MCF7; Table 16
Text: as §2, §1

PC3/PRLR tumors = test: PC3/PRLR xenograft, tumor size and tumor growth inhibition; type: in vivo, SCID mice; conditions: for Average Tumor Growth Inhibition (%) / Final Tumor size mm^3 (mean ± SEM): PC3/PRLR tumors TRIAL #1, SCID mice, Day 63
Summary of the method: as §4

T47D cells [3] = test: Cell kill in the presence of PRLR ligand PRL (15 nM); type: cell-based, human; conditions: Table 13, + 15 nM PRL
Procedure: as §1

[4] = biological target: human PRLR (dimeric) binding to PRL (Homo sapiens, UniProt P16471); test: ELISA-based blocking of PRLR binding to immobilized human PRL; conditions: plates coated with 1 μg/mL PRL; read-out: EC50, human PRLR binding to captured PRL
Chain of human PRLR (dimeric) binding to PRL (P16471 with tags, fused parts or gaps limits assumed): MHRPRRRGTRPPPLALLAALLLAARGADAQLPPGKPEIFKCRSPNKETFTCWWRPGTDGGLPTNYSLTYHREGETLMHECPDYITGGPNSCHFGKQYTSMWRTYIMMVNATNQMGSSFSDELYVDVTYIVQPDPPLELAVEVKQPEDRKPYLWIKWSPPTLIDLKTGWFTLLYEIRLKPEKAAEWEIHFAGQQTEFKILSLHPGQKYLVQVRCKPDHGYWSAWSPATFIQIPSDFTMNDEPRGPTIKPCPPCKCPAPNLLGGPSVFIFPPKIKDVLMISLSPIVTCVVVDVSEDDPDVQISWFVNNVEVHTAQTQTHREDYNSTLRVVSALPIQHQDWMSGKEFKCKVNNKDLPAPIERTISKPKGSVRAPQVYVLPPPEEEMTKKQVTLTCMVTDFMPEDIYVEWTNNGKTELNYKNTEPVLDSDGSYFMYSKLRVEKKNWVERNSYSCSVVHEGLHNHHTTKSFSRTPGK
Procedure: (§6) ELISA-based blocking assays were developed to determine the ability of H1H6958N2 and H1H6958N2-DM1 to block binding of human and cynomolgus monkey PRLR to immobilized human PRL. Dimeric forms of human or cynomolgus monkey (Macaca fascicularis) PRLR and monomeric human PRL were used in this assay. To generate initial dose-response curves, human or monkey PRLR at concentrations ranging from 3.38 pM to 200 nM was added to the plates previously coated in 1 μg/mL PRL. After 1-hour incubation, captured PRLR was detected with HRP-conjugated goat anti-Fcγ antibody and visualized with TMB colorimetric substrate by measuring absorbance at 450 nm. […] Mixtures were then added to plates coated with in 1 μg/mL PRL and captured PRLR was detected as described above. Data were analyzed using a four-parameter logistic equation over an 11-point response curve in GraphPad Prism software and IC50 values were calculated.

[5] = system: PRLR in HEK293/PRLR/STAT5-Luc cells; test: STAT5 luciferase reporter assay, blocking of PRL-induced PRLR signaling (2 nM PRL); type: cell-based; conditions: PRL dose response, no antibody; read-out: EC50, stimulation of human PRLR signaling
Procedure: The capacity of H1H6958N2 and H1H6958N2-DM1 to block human PRL-induced PRLR signaling was determined in a luciferase reporter assay using the HEK293 cell line engineered to constitutively express PRLR and stably transduced with a lucifierase reporter construct comprising 5 tandem STAT5 binding sites derived from the promoter of the human interleukin-2 receptor α gene [STAT5 response element (×5)-luciferase] (John et al., The EMBO Journal, 1996, 15(20): 5627-5635). […] Plates were incubated at 37° C. and 5% CO2 for 5 hours and equilibrated to room temperature for 10 minutes. Luciferase activity was again measured using the ONE-Glo substrate and measuring luminescence.

[6] = biological target: cynomolgus monkey PRLR (dimeric) binding to PRL; test: ELISA-based blocking of PRLR binding to immobilized human PRL; parameters: species or system Macaca fascicularis; conditions: plates coated with 1 μg/mL PRL; read-out: EC50, monkey PRLR binding to captured PRL
Chain of cynomolgus monkey PRLR (dimeric) binding to PRL (as listed by the source): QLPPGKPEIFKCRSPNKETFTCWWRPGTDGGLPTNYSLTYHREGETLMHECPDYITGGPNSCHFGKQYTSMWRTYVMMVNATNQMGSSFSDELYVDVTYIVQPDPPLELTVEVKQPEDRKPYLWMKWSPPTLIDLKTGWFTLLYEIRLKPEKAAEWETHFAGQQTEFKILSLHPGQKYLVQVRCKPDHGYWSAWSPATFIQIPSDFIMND
Procedure: as §6

B1: H1H6953N-DM1 (conjugate)
VH: EVQLLESGGGLVQPGGTLRLSCAASGFTFSAYAMSWVRQAPGKGLEWVSSINVRAGDTYYADSVKGRFTISRDNSKNTLFLLMNSLRAEDTAAYYCAKARYSSNWGFDFWGQGTLVTVSS
VL: DIVMTQSPDSLTVSLGARTTINCQSSQTILHSSNNHNYLAWYQQKPGLPPKLLIYWSSTRESGVPDRFSGSGSGTDFTLTISSLQAEDVAIYYCQQYSNTPYTFGQGTKLEIN
Question: What does the source list for B1?
Answer: percent killing (T47D cells [1]; T47D cells): 78%; % Kill (T47D cells [1]; Table 16): 78%; cell killing, non-cleavable DM1 ADCs versus cleavable MMAE ADCs (PRLR expressing cells): nearly equivalent cell killing; % Kill (NCI-N87/hPRLR cells): 94%; % Kill (MCF7/hPRLR/hErbB2 cells): 77%; % Kill (HEK293/hErbB2 cells): 98%; IC50 (HEK293/hErbB2 cells): 120 nM; % Kill (PC3/hErbB2 cells): 73%; Average Tumor Growth Inhibition (%) (MCF7/PRLR tumors; multi-dose 5 mg/kg): 120%; Final Tumor size mm^3 (mean ± SEM) (MCF7/PRLR tumors; multi-dose 5 mg/kg): 107 ± 45 mm^3; Average Tumor Growth Inhibition (%) (MCF7/PRLR tumors; multi-dose 15 mg/kg): 133%; Final Tumor size mm^3 (mean ± SEM) (MCF7/PRLR tumors; multi-dose 15 mg/kg): 0 ± 0 mm^3; MCF7/PRLR tumor growth (MCF7/PRLR tumors; first multi-dose trial, 5 and 15 mg/kg): potently inhibited MCF7/PRLR tumor growth; % Kill (PC3 cells): 78%; IC50 (PC3 cells): 110 nM; % Kill (HEK293 (293) cells; 293, Table 11, 3 days): 88%; % Kill (HEK293 (293) cells; 293, Table 14): 92%; % Kill ([2]; 293/PRLR, Table 14): 93%; percent killing ([2]; 293/hPRLR cells): 93%; % Kill (SK-BR-3 cells): 77%; % Kill (MCF7 (MCF7/ATCC) cells): 74%; Average Tumor Growth Inhibition (%) (PC3/PRLR tumors; multi-dose 5 mg/kg): 23%; Final Tumor size mm^3 (mean ± SEM) (PC3/PRLR tumors; multi-dose 5 mg/kg): 1058 ± 138 mm^3; Average Tumor Growth Inhibition (%) (PC3/PRLR tumors; multi-dose 15 mg/kg): 39%; Final Tumor size mm^3 (mean ± SEM) (PC3/PRLR tumors; multi-dose 15 mg/kg): 892 ± 53 mm^3; PC3/PRLR tumor growth (PC3/PRLR tumors; multi-dose, especially at 15 mg/kg): demonstrated inhibition of tumor growth

B2: H1H6782P-SMCC-DM1 (conjugate)
VH: EVQLVESGGGLVQPGRSLRLSCAASGFTFDDYAMHWVRQAPGKGLEWVSGIIWNSGHIGYGDSVKGRFTISRDNAKKSLYLQMNSLRAEDTALYYCARDSGRYQSYFDYWGQGTLVTVSS
VL: DIQMTQSPSTLSASVGDRVTITCRASHIISSWLAWYQQKPGKAPKVLIFKASSLESGVPSRFSGSGSGTEFTLTISSLQPDDFATYYCQQYNTYSRTFGQGTKVEIK
Question: Which results are given for B2?
Answer: % Kill (T47D cells [1]; Table 13, without PRL): 98%; % Kill (T47D cells [3]): 97%; % Kill (HEK293 (293) cells; HEK293, Table 13, + 15 nM PRL): 78%; % Kill (HEK293 (293) cells; HEK293, Table 13, without PRL): 83%

B3: PRL: monomeric human prolactin, ligand of PRLR (protein)
chain: LPICPGGAARCQVTLRDLFDRAVVLSHYIHNLSSEMFSEFDKRYTHGRGFITKAINSCHTSSLATPEDKEQAQQMNQKDFLSLIVSILRSWNEPLYHLVTEVRGMQEAPEAILSKAVEIEEQTKRLLEGMELIVSQVHPETKENEIYPVWSGLPSLQMADEESRLSAYYNLLHCLRRDSHKIDNYLKLLKCRIIHNNNC
Question: B3 was tested. Which EC50 [4] did it give?
Answer: 4.9 nM

Question: What about the EC50 [5] of the same molecule?
Answer: 2.1 nM

Question: And the EC50 [6]?
Answer: 5.7 nM
